Earlier results on 1 substance are cited in publication PMC7508936.

The target of the series is galectin-1 (Homo sapiens) (UniProt P09382).
Chain of UniProt P09382 (P09382 2-135): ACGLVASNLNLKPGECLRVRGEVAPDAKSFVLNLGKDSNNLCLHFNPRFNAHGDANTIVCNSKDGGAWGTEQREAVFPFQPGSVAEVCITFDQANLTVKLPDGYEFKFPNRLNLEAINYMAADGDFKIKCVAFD

Turning to PSG1 (from UniProt P11464), the Kd was 0.13 µM.

One may read the Kd as the concentration at which binding is half-saturated.
